We go through 14 molecules from patent US7268212B2, “Ligand of G protein-coupled receptor protein and DNA thereof” (Takeda Pharmaceutical Company Limited, priority 2001, dated 2007).

Usually IC50 stands for the concentration that gives 50% inhibition.

Non-standard residues stand in square brackets, D forms with d. Residues, ends and D or L forms follow the SMILES beside them. No end group written: not given here. Trp(6-Br) = N[C@@H](Cc1c[nH]c2cc(Br)ccc12)C(=O)O; dTrp(6-Br) = N[C@H](Cc1c[nH]c2cc(Br)ccc12)C(=O)O

Assay [1] deals with T1, GPR7 (Homo sapiens, UniProt P48145).
T1 sequence (P48145 1-328): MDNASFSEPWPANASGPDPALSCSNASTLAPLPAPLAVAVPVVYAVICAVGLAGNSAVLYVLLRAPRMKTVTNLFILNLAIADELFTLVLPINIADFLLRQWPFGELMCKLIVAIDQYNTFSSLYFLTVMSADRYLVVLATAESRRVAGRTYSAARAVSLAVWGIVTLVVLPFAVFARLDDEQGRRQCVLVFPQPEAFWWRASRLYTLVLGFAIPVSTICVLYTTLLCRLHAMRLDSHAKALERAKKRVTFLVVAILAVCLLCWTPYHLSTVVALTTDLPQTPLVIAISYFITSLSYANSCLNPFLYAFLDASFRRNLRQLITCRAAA
The experiment in a line: Test on binding inhibition of various peptides against human GPR7-expressed CHO cell membrane fraction. Set-up: The synthetic primers were constructed so as to amplify the gene in the region to be translated to its receptor protein; expressed in transfected cells; host or cells: CHO cells, membrane fraction. The settings on record: iodine-labeled hGPR7L-23; human GPR7-expressed CHO cell membrane fraction 1 μg/well; room temperature 1.5 hour. Here is the method: A mixture of 20 μl of hGPR7L-23 (SEQ ID NO:1) (0.1 mM or 1 mM), 20 μl of lactoperoxidase (Sigma; prepared using 10 μg/ml and 0.1M HEPES-NaOH pH7.0), 20 μl of Idoine-125 (manufactured by Amersham, MS-30, 74 MBq), 20 μl of 0.005% hydrogen peroxide (manufactured by Wako Pure Chemical Industries, Ltd.) was allowed to stand at room temperature for 20 to 30 minutes. Then, 600 μl of 0.1% TFA was added to the mixture. The mixture was applied to reverse phase HPLC for separation and the peaks of the two'labeled products were fractionated in a tube charged with 1 mL of DMSO. Immediately, the fraction was stored on ice and an aliquot was provided for measurement of the radioactivity with a γ-counter. The remaining preparation was dispensed and stored at −30° C.
Human GPR7-expressed CHO cells were cultured in a flask. The flask was washed with 5 mM EDTA/PBS to strip the cells off. The cells were stripped off with 5 mM EDTA/PBS and centrifuged for recovery. The recovered cells were suspended in 25 mL of a buffer for preparing membrane fraction (50 mM Tris-HCl, pH7.5, 5 mM EDTA, 0.1% bovine serum albumin (manufactured by Sigma), 0.5 mM PMSF (manufactured by Wako Pure Chemical Industries, Ltd.), 20 μg/mL leupeptin (manufactured by Peptide Research Institute), 0.1 μg/mL pepstatin A (manufactured by Peptide Research Institute) and 4 μg/mL E-64 (manufactured by Peptide Research Institute)), followed by homogenization on ice using a polytron (12,000 rpm, 15 seconds×3 times). The homogenate was centrifuged at 4° C. under 1,000 g for 10 minutes with a high speed cooling centrifuge to recover the supernatant. […] The pellets were recovered and suspended in a small quantity of the buffer for preparing membrane fractions. […]
Using the assay buffer, the human GPR7-expressed CHO cell membrane fraction was diluted in a final concentration of 1 μg/well and iodine-labeled hGPR7L-23 (SEQ ID NO:1) was diluted in a final concentration of […]. […] After 50 μl of a liquid scintillator was dispensed thereto, the radioactivity was counted on a Top Count (Packard) and the data was analyzed in triplet (FIG. 33). […]

Assay [2] has as its target T1, GPR7. Nature of the assay: Intracellular cAMP production suppression activity on human GPR7-expressed CHO cells. The class given is cell-based. Also noted: The synthetic primers were constructed so as to amplify the gene in the region to be translated to its receptor protein; expressed in transfected cells; host or cells: CHO cells, membrane fraction. To be noted: forskolin-promoted cAMP production; receptor-expressed CHO cells; read-out: IC50 (nM) human GPR7, cAMP production inhibition. Here is the method:
(§1) The intracellular cAMP production suppression activity of peptides associated with various GPR7 ligands on CHO cells, in which human GPR7, bovine GPR8, human GPR8, human GPR8, bovine GPR8 and rat GPR7 were expressed, was examined. […] An assay buffer was prepared by adding 20 mM HEPES, pH7.4, 0.1% bovine serum albumin and 0.2 mM 3-isobutyl-1-methylxanthine (Sigma) to Hanks' Balanced Salt Solution (Gibco BRL). The plate incubated overnight was first washed twice with 150 μl of the assay buffer, and then exchanged with 150 μl of the assay buffer, followed by incubation for 30 minutes at 37° C. in 100% air. By adding 4 μM forskolin to the assay buffer, a buffer for sample dilution was prepared and the stock solution (10^−2 M of 10^−3 M) was diluted with the buffer thus obtained to prepare sample solutions in final concentrations of 10^−6 M, 10^−7 M, 10^−8 M, 10^−9 M and 10^−10 M. The plate incubated with the assay buffer for 30 minutes was taken out. After washing twice with the assay buffer, 50 μl of the assay buffer and then 50 μl of the sample solution were added thereto. Each sample was assayed in triplet. […] A difference between the maximum cAMP level and the cAMP level when each sample was added was calculated and the percentage of cAMP production level promoted by forskolin was worked out, which was made the cAMP production inhibition rate.

Assay [3] concerns the target T2, bovine GPR7 (Bos taurus, UniProt Q8MJV3).
T2 construct: expressed in transfected cells; host or cells: CHO cells
T2 sequence (Q8MJV3 1-331): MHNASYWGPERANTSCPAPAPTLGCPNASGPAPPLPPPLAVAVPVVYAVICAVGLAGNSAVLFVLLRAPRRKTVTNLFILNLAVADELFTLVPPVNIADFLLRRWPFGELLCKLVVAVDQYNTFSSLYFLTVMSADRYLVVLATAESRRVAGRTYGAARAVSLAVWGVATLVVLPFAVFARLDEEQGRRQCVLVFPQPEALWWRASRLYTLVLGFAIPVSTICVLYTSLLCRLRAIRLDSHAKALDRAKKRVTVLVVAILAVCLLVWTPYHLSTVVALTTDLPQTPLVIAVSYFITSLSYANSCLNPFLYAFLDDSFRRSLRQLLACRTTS
Nature of the assay: Intracellular cAMP production suppression activity on bovine GPR7-expressed CHO cells. The class given is cell-based. The settings on record: forskolin-promoted cAMP production; receptor-expressed CHO cells; read-out: IC50 (nM) bovine GPR7, cAMP production inhibition. Here is the method: as §1

In assay [4] the target is T1, GPR7. The settings on record: reported by O'Dowd, B. F. et al.; cited from earlier work.
Assay [5] deals with T3, human GPR7 (human).
T3 chain: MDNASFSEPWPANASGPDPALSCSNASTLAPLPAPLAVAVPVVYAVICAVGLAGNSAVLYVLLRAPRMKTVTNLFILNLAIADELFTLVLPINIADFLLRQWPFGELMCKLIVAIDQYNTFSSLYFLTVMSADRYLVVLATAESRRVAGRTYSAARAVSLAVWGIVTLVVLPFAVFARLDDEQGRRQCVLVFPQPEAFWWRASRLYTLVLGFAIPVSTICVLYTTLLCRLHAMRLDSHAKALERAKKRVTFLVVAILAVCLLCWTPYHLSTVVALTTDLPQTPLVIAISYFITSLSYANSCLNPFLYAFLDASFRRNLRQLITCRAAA
Nature of the assay: competition, radioligand.

For the molecule `CC(C)C[C@H](NC(=O)CNC(=O)[C@H](C)NC(=O)[C@H](C)NC(=O)[C@H](CCCNC(=N)N)NC(=O)CNC(=O)[C@@H](NC(=O)[C@H](CO)NC(=O)[C@H](Cc1ccc(O)cc1)NC(=O)[C@H](Cc1ccc(O)cc1)NC(=O)CNC(=O)[C@H](CCC(N)=O)NC(=O)CNC(=O)[C@H](C)NC(=O)[C@@H](NC(=O)[C@@H]1CCCN1C(=O)[C@H](CCCCN)NC(=O)[C@H](Cc1ccc(O)cc1)NC(=O)[C@@H](N)Cc1c[nH]c2cc(Br)ccc12)[C@@H](C)O)C(C)C)C(=O)N[C@@H](CC(C)C)C(=O)N[C@@H](CO)C(=O)NCC(=O)N[C@@H](Cc1ccccc1)C(=O)N[C@@H](Cc1c[nH]cn1)C(=O)N[C@@H](CCCNC(=N)N)C(=O)N[C@@H](CO)C(=O)N1CCC[C@H]1C(=O)N[C@@H](Cc1ccc(O)cc1)C(=O)N[C@@H](C)C(=O)O` [LTrp(6Br)1-bovine GPR7L(29)] (H-[Trp(6-Br)]YKPTAGQGYYSVGRAAGLLSGFHRSPYA-OH; N-terminus and C-terminus assumed), the IC50 in assay [1] came out at 0.34 nM; in assay [2], 0.58 nM.

Turning to “WYKPAAGSHHYSVGRAAGLLSSFH [Trp1-rat GPR7L(24)]”, the IC50 in assay [2] turned out to be 0.31 nM.

Take “WYKPAAGSHHYSVGRAAGLLSSFHRFPST [Trp1-rat GPR7L(29)]”: the figures for the IC50 in assay [3] and in assay [1] were 1.2 nM and 0.34 nM, respectively.

Regarding β-endorphin, the “inhibition of [3H] bremazocine binding to the membrane fraction of GPR7” value in assay [4] was “inhibited”.

The molecule WYKPAAGHSSYSVGRAAGLLSGL [Trp1-human GPR7L(23)] gave an IC50 in assay [5] of 1.6 nM.

B1: DTrp(6Br)1-human GPR7L(29) (peptide)
chain: WYKPAAGHSSYSVGRAAGLLSGLRRSPYA
modifications: not fully specified (residue 1); printed as D-Trp(6Br)-Tyr-Lys-Pro-Ala-Ala-Gly-His-Ser-Ser-Tyr-Ser-Val-Gly-Arg-Ala-Ala-Gly-Leu-Leu-Ser-Gly-Leu-Arg-Arg-Ser-Pro-Tyr-Ala
Consider B1, for which the IC50 in assay [5] amounted to 13 nM.

Take WYKPAAGSHHYSVGRAAGLLSSFHRFPST [Trp1-rat GPR7L(29)]: the half-maximal inhibitory concentration (IC50) in assay [5] was found to be 0.34 nM.

Turning to [dTrp(6-Br)]YKPTAGQGYYSVGRAAGLLSGFHRSPYA [DTrp(6Br)1-bovine GPR7L(29)], the IC50 in assay [5] is 6.1 nM.

With [Trp(6-Br)]YKPTAGQGYYSVGRAAGLLSGFHRSPYA [LTrp(6Br)1-bovine GPR7L(29)], the 50% inhibitory concentration (IC50) in assay [5] came out at 0.34 nM.

With [Trp(6-Br)]YKPAAGHSSYSVGRAAGLLSGLRRSPYA [LTrp(6Br)1-human GPR7L(29)], the IC50 in assay [5] was determined as 0.32 nM.

With WYKPAAGSHHYSVGRAAGLLSSFH [Trp1-rat GPR7L(24)], the IC50 in assay [5] is 0.3 nM.

Consider WYKPTAGQGYYSVGRAAGLLSGFHRSPYA [Trp1-bovine GPR7L(29)], for which the 50% inhibitory concentration (IC50) in assay [5] turned out to be 0.31 nM.

Molecule WYKPAAGHSSYSVGRAAGLLSGLRRSPYA [Trp1-human GPR7L(29)] had an IC50 in assay [5] of 0.33 nM.

The molecule WYKHVASPRYHTVGRAAGLLMGL [Trp1-human GPR8L(23)] displayed an IC50 in assay [5] of 0.4 nM.
